Experimental data: patent US20240327497A1
Substitutions are numbered along the chain they refer to. Names may count otherwise.

B1: anti-NGF canine IgGB antibody, Fc variant A426Y (antibody, part only; not given: Anti-NGF variable domains, not shown: another chain or arm of the molecule; small tags and cut ends)
Fc: APEMLGGPSVFIFPPKPKDTLLIARTPEVTCVVVDLDPEDPEVQISWFVDGKQMQTAKTQPREEQFNGTYRVVSVLPIGHQDWLKGKQFTCKVNNKALPSPIERTISKARGQAHQPSVYVLPPSREELSKNTVSLTCLIKDFFPPDIDVEWQSNGQQEPESKYRTTPPQLDEDGSYFLYSKLSVDKSRWQRGDTFICYVMHEALHNHYTQESLSHSPGK
B2: anti-NGF canine IgGB antibody, Fc variant A426H + Y436H (antibody, part only; not given: anti-NGF variable domains and light chain, not shown: another chain or arm of the molecule; small tags and cut ends)
Fc: B1 Fc with Y198H, Y208H
B3: anti-NGF canine IgGB antibody, Fc variant A426H (antibody, part only; not given: Anti-NGF variable domains, not shown: another chain or arm of the molecule; small tags and cut ends)
Fc: B1 Fc with Y198H
B4: anti-NGF canine IgGB antibody, Fc variant N434R + D312P (antibody, part only; not given: anti-NGF variable domains and light chain, not shown: another chain or arm of the molecule)
Fc: B1 Fc with D82P, Y198A, N206R
B5: anti-NGF canine IgGB antibody, Fc variant A426Y + D312P (antibody, part only; not given: anti-NGF variable domains and light chain, not shown: another chain or arm of the molecule; small tags and cut ends)
Fc: B1 Fc with D82P
B6: anti-NGF canine IgGB antibody, Fc variant N434R + T286Y (antibody, part only; not given: anti-NGF variable domains and light chain, not shown: another chain or arm of the molecule)
Fc: B1 Fc with T56Y, Y198A, N206R
B7: anti-NGF canine IgGB antibody, Fc variant A426Y + N434R (antibody, part only; not given: anti-NGF variable domains and light chain, not shown: another chain or arm of the molecule; small tags and cut ends)
Fc: B1 Fc with N206R
B8: anti-NGF canine IgGB antibody, Fc variant N434Y (antibody, part only; not given: Anti-NGF variable domains, not shown: another chain or arm of the molecule)
Fc: B1 Fc with Y198A, N206Y
B9: anti-NGF canine IgGB antibody, Fc variant N434R + T286L (antibody, part only; not given: Anti-NGF variable domains, not shown: another chain or arm of the molecule)
Fc: B1 Fc with T56L, Y198A, N206R
B10: anti-NGF canine IgGB antibody, Fc variant A426Y + T286L (antibody, part only; not given: Anti-NGF variable domains, not shown: another chain or arm of the molecule; small tags and cut ends)
Fc: B1 Fc with T56L
B11: anti-NGF canine IgGB antibody, Fc variant N434R + Y436H (antibody, part only; not given: Anti-NGF variable domains, not shown: another chain or arm of the molecule)
Fc: B1 Fc with Y198A, N206R, Y208H
B12: anti-NGF canine IgGB antibody, Fc variant A426Y + Y436H (antibody, part only; not given: anti-NGF variable domains and light chain, not shown: another chain or arm of the molecule; small tags and cut ends)
Fc: B1 Fc with Y208H
B13: anti-NGF canine IgGB antibody, Fc variant N434R (antibody, part only; not given: Anti-NGF variable domains, not shown: another chain or arm of the molecule)
Fc: B1 Fc with Y198A, N206R
B14: anti-NGF canine IgGB antibody, Fc variant A426Y + T286L + Y436H (antibody, part only; not given: anti-NGF variable domains and light chain, not shown: another chain or arm of the molecule)
Fc: B1 Fc with T56L, Y208H

biological target: canine FcRn (FcRn large subunit with canine beta-2-microglobulin) (canine); assay: SPR pH 6.0, IgG coupled to CM5, FcRn 50-800 nM

Binder	Kd [nM]	koff [s⁻¹]	kon [M⁻¹ s⁻¹]
B1	1130	0.134	119000
B2	2270	0.202	88700
B3	1040	0.124	119000
B4	197	0.048	244000
B5	421	0.0577	137000
B6	93.7	0.0221	236000
B7	288	0.0591	206000
B8	70.8	0.0181	255000
B9	173	0.031	180000
B10	327	0.0559	171000
B11	320	0.0838	262000
B12	507	0.0777	153000
B13	497	0.107	216000

biological target: canine FcRn (FcRn large subunit with canine beta-2-microglobulin) (canine); assay: SPR pH 5.9, IgG coupled to C1 chip, 1:1 kinetic fit

Binder	Kd [nM]	koff [s⁻¹]	kon [M⁻¹ s⁻¹]
B1	129	0.113	878000
B2	161	0.13	808000
B3	115	0.142	1.24e+06
B5	45.1	0.0497	1.1e+06
B14	7.26	0.0412	5.67e+06
B10	42.3	0.0436	1.03e+06
B12	57.7	0.0608	1.06e+06

biological target: canine FcRn (FcRn large subunit with canine beta-2-microglobulin) (canine); assay: SPR pH 7.4, FcRn coupled at high density, IgG 400 nM

Binder	Kd [nM]	kon [M⁻¹ s⁻¹]	koff [s⁻¹]
B4	104	4.95e+08	
B5	2900	58900	0.171
B6	81.2	3.4e+08	
B7	129		
B8	80.2	2.87e+06	0.23
B9	134		
B10	1120	82300	0.092
B11	382	666000	0.255
B13	234	8.25e+08	
